For orientation: Kd means a measure of binding affinity in units of concentration. A lower Kd goes with a tighter complex.

Experiment in all cases: other fluorescence titration; tryptophan fluorescence quenching: intrinsic fluorescence of the β subunit or β1a-SH3 domain in the cuvette (sub-micromolar; 50 nM β1a-FL for the AID titration) monitored while titrating the II-III loop or peptides; excitation 280 nm, emission 340 nm; corrected for dilution and intrinsic fluorescence of the titrant; nonlinear regression
Assay [1] has as its target DHPR β1a subunit, full length (mouse) (UniProt Q8R3Z5).
Assay [2] addresses DHPR β1a SH3 domain (β1a residues V101-P272) (mouse) (UniProt Q8R3Z5).
Assay [3] addresses β1a/β2a RT loop chimera, HE to PG mutant (mouse).
Assay [4] has as its target β2a HE to PG mutant (mouse) (UniProt Q8CC27).

Sequence of DHPR β1a SH3 domain (β1a residues V101-P272) (mouse) (Q8R3Z5 other isoform, or with tags, fused parts or gaps): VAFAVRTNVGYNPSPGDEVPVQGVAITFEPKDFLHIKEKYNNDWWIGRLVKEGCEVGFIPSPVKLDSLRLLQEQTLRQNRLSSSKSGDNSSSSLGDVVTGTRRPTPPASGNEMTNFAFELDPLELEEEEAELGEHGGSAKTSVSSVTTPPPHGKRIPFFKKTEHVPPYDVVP
Sequence of DHPR β1a subunit, full length (mouse) (Q8R3Z5 other isoform, or with tags, fused parts or gaps): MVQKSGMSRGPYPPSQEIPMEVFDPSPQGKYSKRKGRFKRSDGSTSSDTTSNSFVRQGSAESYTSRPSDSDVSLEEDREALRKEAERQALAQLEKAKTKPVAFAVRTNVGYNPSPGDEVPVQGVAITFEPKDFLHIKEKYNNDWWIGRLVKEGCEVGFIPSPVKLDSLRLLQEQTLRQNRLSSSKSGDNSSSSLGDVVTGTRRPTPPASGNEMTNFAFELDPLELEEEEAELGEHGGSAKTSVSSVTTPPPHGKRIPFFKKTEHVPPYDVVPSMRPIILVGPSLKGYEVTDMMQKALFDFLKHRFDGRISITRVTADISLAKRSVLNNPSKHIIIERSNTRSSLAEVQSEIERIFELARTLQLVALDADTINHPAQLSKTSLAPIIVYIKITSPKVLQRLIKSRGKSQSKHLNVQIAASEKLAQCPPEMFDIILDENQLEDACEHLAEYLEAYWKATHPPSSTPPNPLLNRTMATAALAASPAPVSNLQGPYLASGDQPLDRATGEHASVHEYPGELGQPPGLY
Sequence of α1s II–III loop C region peptide (residues 720–765) (P07293 720-765): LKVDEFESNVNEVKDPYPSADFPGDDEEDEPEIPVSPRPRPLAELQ

DHPR α1s I-II loop AID peptide displayed a dissociation constant Kd in assay [1] of 0.0152 µM. This counts as double-digit nanomolar.

Turning to “sP1 A⟶P mutant (from UniProt P07293 733-745) (peptide)”, the figures for the dissociation constant (Kd) in assay [2] and in assay [1] were 2.3 µM and 4.5 µM, respectively. Consider “sP1 D⟶E mutant (from UniProt P07293 733-745) (peptide)”, for which the Kd in assay [2] was 17 µM; in assay [1], 15 µM. Taken in the same sequence, the figures for “sP1 F⟶T mutant (from UniProt P07293 733-745) (peptide)” were 4.6 µM and 4.6 µM.

In the case of “sP1 P⟶T mutant (from UniProt P07293 733-745) (peptide)”, the Kd amounted to 19 µM in assay [2] and 22 µM in assay [1]. For “α1s C binding peptide 1 (from UniProt P07293 733-745)”, in that order: 2.6 µM and 3.6 µM. Regarding “α1s C binding peptide 2 (from UniProt P07293 748-764)”, the equilibrium dissociation constant (Kd) in assay [2] came out at 3.8 µM; in assay [1] it was 5.4 µM. With “α1s II–III loop C region peptide (residues 720–765) (from UniProt P07293 720-765)”, the Kd worked out at 8.7 µM in assay [3] and 10.4 µM in assay [4].
